This assay concerns the target hu IGF-1R(ECD)-C3-muIgG1 Fc (human; mouse). Description: ORIGEN dose response competition on IGF-1R(ECD)-C3-muFc beads; competitor 1 nM Ru-IGF-1.

For the substance “murine anti-IGF-1R antibody αIR3 (Calbiochem)”, the Max (%), maximum level of inhibition at 1 µM antibody concentration came out at 91%.

(Values after patent US20150274829A1.)
